From the supplement of paper PMC10567573

B1: CCNC (parent)
chain: QSSHYLQWILDKQDLLKERQKDLK
B2: INTS3 (parent)
chain: FHPIKETVVEEPVDITPYLDQLDE

Variants of: B1
Assay: protein stability index of a GFP-peptide fusion (GPS, HEK-293T) (PSI 1-6); higher = more stable
Conditions: c terminus: a fixed tail appended
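Note: lentivirally expressed fusions sorted by FACS into six bins by GFP to DsRed ratio, PSI derived from sequencing read proportions per bin multiplied by bin number.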

Row | Variant | protein stability index
1 | K21Q | 3.02
2 | K21H | 2.45
3 | K21W | 2.3
4 | K21I | 3.01
5 | K21A | 2.78
6 | K21C | 2.42
7 | K21D | 2.83
8 | K21G | 2.87
9 | K21P | 3.42
10 | K21E | 2.99
11 | K21N | 2.57
12 | K21R | 4.05
13 | K21M | 2.9
14 | K21T | 3.28
15 | K21L | 2.43
16 | K21F | 1.69
17 | K21S | 2.84
18 | K21Y | 2.69
19 | K12T | 2.01
20 | K12Y | 2.75
21 | K12Q | 3.25
22 | K12A | 2.73
23 | K12L | 1.72
24 | K12E | 3.66
25 | K12I | 1.71

Row | Variant | protein stability index
26 | K12S | 1.98
27 | K12P | 3.29
28 | K12D | 4.21
29 | K12C | 2.46
30 | K12N | 2.79
31 | K12M | 1.92
32 | K12G | 2.41
33 | K12F | 2.25
34 | K12W | 1.52
35 | K12V | 2.34
36 | K12H | 2.83
37 | L23S | 3.54
38 | L23N | 3.18
39 | L23E | 3.81
40 | L23Q | 3.83
41 | L23I | 3.39
42 | L23R | 3.52
43 | L23T | 3.27
44 | L23W | 2.98
45 | L23K | 3.6
46 | L23Y | 1.85
47 | L23F | 2.82
48 | L23V | 2.48
49 | L23H | 3.31
50 | L23D | 4.22

Row | Variant | protein stability index
51 | L23G | 4.43
52 | L23A | 3.41
53 | L23C | 3.31
54 | L23P | 2.59
55 | L23M | 3.31
56 | K17V | 2.82
57 | K17W | 1.97
58 | K17Y | 2.09
59 | K17T | 3.34
60 | K17P | 3.38
61 | K17Q | 4.4
62 | K17S | 3.66
63 | K17H | 2.93
64 | K17N | 3.53
65 | K17F | 2.62
66 | K17M | 3.14
67 | K17C | 2.71
68 | K17L | 2.68
69 | K17E | 3.35
70 | K17A | 3.21
71 | K17R | 2.33
72 | K17I | 2.09
73 | K17G | 2.96
74 | K17D | 2.94
75 | L16F | 3.23

Row | Variant | protein stability index
76 | L16N | 4
77 | L16G | 3.43
78 | L16V | 4.04
79 | L16R | 3.78
80 | L16M | 2.52
81 | L16H | 4
82 | L16W | 2.92
83 | L16P | 4.26
84 | L16C | 3.52
85 | L16D | 3.58
86 | L16K | 3.54
87 | L16Q | 4.15
88 | L16I | 3.64
89 | L16S | 4.05
90 | L16Y | 2.57
91 | L16E | 4
92 | L16T | 3.73
93 | L16A | 3.74
94 | I9C | 3.9
95 | I9K | 4.09
96 | I9N | 4.01
97 | I9W | 3.83
98 | I9A | 4.27
99 | I9L | 3.36
100 | I9D | 4.82

Row | Variant | protein stability index
101 | I9P | 4.6
102 | I9F | 3.98
103 | I9R | 4.12
104 | I9Y | 3.32
105 | I9V | 3.09
106 | I9Q | 4.21
107 | I9M | 3.53
108 | I9T | 3.74
109 | I9E | 4.87
110 | I9H | 3.64
111 | I9S | 4
112 | I9G | 3.67
113 | Q20L | 2.17
114 | Q20P | 2.76
115 | Q20Y | 2.38
116 | Q20I | 1.66
117 | Q20R | 3.5
118 | Q20W | 1.44
119 | Q20F | 2.67
120 | Q20V | 2.69
121 | Q20A | 3.12
122 | Q20E | 2.96
123 | Q20G | 2.98
124 | Q20M | 1.99
125 | Q20S | 3.38

Row | Variant | protein stability index
126 | Q20C | 2.46
127 | Q20H | 3.16
128 | Q20K | 3.07
129 | Q20D | 3.01
130 | Q20T | 3.2
131 | Q20N | 3.21
132 | D14R | 2.7
133 | D14G | 3.8
134 | D14S | 2.55
135 | D14H | 2.83
136 | D14E | 4.29
137 | D14T | 3.36
138 | D14P | 3.17
139 | D14M | 2.97
140 | D14A | 2.58
141 | D14Q | 3.48
142 | D14I | 2.55
143 | D14W | 2.73
144 | D14L | 2.8
145 | D14K | 3.65
146 | D14V | 2.9
147 | D14N | 3.39
148 | D14Y | 2.61
149 | D14C | 2.79
150 | D14F | 2.22

Row | Variant | protein stability index
151 | E18Y | 2.2
152 | E18D | 3.08
153 | E18C | 2.28
154 | E18G | 2.53
155 | E18F | 2.15
156 | E18W | 1.8
157 | E18V | 2.82
158 | E18P | 2.56
159 | E18S | 2.54
160 | E18H | 2.54
161 | E18R | 2.63
162 | E18Q | 2.29
163 | E18L | 2.33
164 | E18M | 2.02
165 | E18A | 3.67
166 | E18K | 2.89
167 | E18T | 2.7
168 | E18N | 2.53
169 | E18I | 2.84
170 | D22E | 3.19
171 | D22G | 2.6
172 | D22Q | 2.1
173 | D22M | 2.55
174 | D22W | 2.57
175 | D22R | 3.72

Row | Variant | protein stability index
176 | D22S | 2.59
177 | D22A | 2.61
178 | D22H | 3.02
179 | D22N | 2.9
180 | D22P | 2.6
181 | D22T | 2.31
182 | D22C | 2.54
183 | D22F | 2.67
184 | D22Y | 2.82
185 | D22L | 2.08
186 | D22K | 2.18
187 | D22V | 2.79
188 | D22I | 2.48
189 | K24C | 2.29
190 | K24D | 4.08
191 | K24A | 2.66
192 | K24T | 2.96
193 | K24P | 2.4
194 | K24N | 3.46
195 | K24G | 3.1
196 | K24F | 2.69
197 | K24H | 3.29
198 | K24R | 2.57
199 | K24Q | 2.77
200 | K24Y | 2.17

Row | Variant | protein stability index
201 | K24M | 2.57
202 | K24V | 2.92
203 | K24S | 2.81
204 | K24W | 1.78
205 | K24E | 3.78
206 | K24L | 3.19
207 | K24I | 2.21
208 | D11H | 2.86
209 | D11W | 2.38
210 | D11E | 3.4
211 | D11C | 2.96
212 | D11K | 3.09
213 | D11S | 3
214 | D11P | 3.13
215 | D11F | 2
216 | D11I | 2.26
217 | D11Y | 3.17
218 | D11A | 3.01
219 | D11T | 2.58
220 | D11G | 2.75
221 | D11Q | 3.39
222 | D11R | 2.1
223 | D11L | 2.72
224 | D11N | 2.83
225 | D11V | 2.86

Row | Variant | protein stability index
226 | D11M | 2.36
227 | L15F | 2.54
228 | L15D | 3.47
229 | L15Q | 3.94
230 | L15V | 3.11
231 | L15R | 2.78
232 | L15T | 3.72
233 | L15N | 3.33
234 | L15P | 3.93
235 | L15I | 3.11
236 | L15W | 3.37
237 | L15H | 3.72
238 | L15S | 3.44
239 | L15A | 4.19
240 | L15C | 3.21
241 | L15K | 3.66
242 | L15E | 4.08
243 | L15Y | 2.8
244 | L15G | 3.44
245 | R19H | 3.03
246 | R19K | 3.27
247 | R19W | 2.64
248 | R19A | 2.75
249 | R19C | 2.42
250 | R19E | 3.81

Row | Variant | protein stability index
251 | R19G | 3.25
252 | R19F | 2.14
253 | R19P | 3.56
254 | R19Q | 3.5
255 | R19V | 2.19
256 | R19M | 2.12
257 | R19S | 2.94
258 | R19I | 2.29
259 | R19D | 3.93
260 | R19L | 2.06
261 | R19T | 3.14
262 | R19N | 3.72
263 | R19Y | 2.72
264 | W8T | 4.39
265 | W8Y | 4.5
266 | W8L | 3.41
267 | W8H | 4.03
268 | W8D | 4.55
269 | W8G | 3.94
270 | W8E | 4.35
271 | W8Q | 3.96
272 | W8N | 4.46
273 | W8I | 3.16
274 | W8F | 3.77
275 | W8S | 4.09

Row | Variant | protein stability index
276 | W8K | 3.87
277 | W8P | 4.29
278 | W8V | 3.52
279 | W8M | 4.16
280 | W8R | 4.18
281 | Q13R | 2.6
282 | Q13V | 2.76
283 | Q13G | 2.94
284 | Q13P | 3.36
285 | Q13M | 2
286 | Q13C | 3.1
287 | Q13N | 3.74
288 | Q13T | 2.7
289 | Q13L | 1.85
290 | Q13F | 2.34
291 | Q13A | 2.74
292 | Q13K | 3.49
293 | Q13I | 2.59
294 | Q13S | 2.91
295 | Q13E | 2.71
296 | Q13D | 3.82
297 | Q13H | 2.5
298 | Q13Y | 2.42
299 | Q13W | 2.36
300 | L10T | 3.34

Row | Variant | protein stability index
301 | L10M | 3.41
302 | L10D | 4.49
303 | L10S | 4
304 | L10E | 4.29
305 | L10P | 4.58
306 | L10V | 3.09
307 | L10H | 3.52
308 | L10I | 2.97
309 | L10G | 3.76
310 | L10R | 3.61
311 | L10K | 3.6
312 | L10W | 2.54
313 | L10Q | 4.22
314 | L10Y | 3.42
315 | L10F | 3.4
316 | L10N | 4.17
317 | L10C | 3.86
318 | L10A | 4.22

Variants of: B2
Assay: as above
Conditions: c terminus: a fixed tail appended

Row | Variant | protein stability index
319 | F1D | 5.78
320 | F1A | 5.42
321 | F1R | 5.18
322 | F1N | 5.47
323 | F1S | 5.58
324 | F1Q | 5.65
325 | F1L | 5.28
326 | F1M | 5.23
327 | F1E | 5.2
328 | F1T | 5.54
329 | F1P | 5.74
330 | F1H | 5.5
331 | F1C | 5.32
332 | F1G | 5.5
333 | F1K | 5.66
334 | F1I | 4.99
